Data taken from patent publication US8709811B2, “Materials and methods for synthesis of a flavor and aroma volatile in plants” (University of Florida Research Foundation, Inc., priority 2003, dated 2014).

What was measured:
Test in all cases: Alcohol dehydrogenase activity of E. coli expressed His-tagged LePEDH on phenylacetaldehyde and related substrates (Km)
Format in all cases: biochemical, tomato
Conditions in all cases: other: substrate specificity of LePEDH, His tag, E. coli BL21-AI
O=Cc1ccccc1 = system: O=Cc1ccccc1
Method: (§1) The 2-phenylethanol dehydrogenase coding region of the full-length cLET2M9 was cloned in vector pDEST17 with a His tag and transformed into E. coli BL21-AI cells for inducible expression. Alcohol dehydrogenase activities on phenylacetaldehyde and several related substrates were determined.
O=CCc1ccccc1 = system: O=CCc1ccccc1
Method: as §1
O=C/C=C/c1ccccc1 = system: O=C/C=C/c1ccccc1
Method: as §1

Chain of LePEDH (tomato 2-phenylethanol dehydrogenase, full-length cLET2M9) (Solanum lycopersicum) (chain, as listed by the source): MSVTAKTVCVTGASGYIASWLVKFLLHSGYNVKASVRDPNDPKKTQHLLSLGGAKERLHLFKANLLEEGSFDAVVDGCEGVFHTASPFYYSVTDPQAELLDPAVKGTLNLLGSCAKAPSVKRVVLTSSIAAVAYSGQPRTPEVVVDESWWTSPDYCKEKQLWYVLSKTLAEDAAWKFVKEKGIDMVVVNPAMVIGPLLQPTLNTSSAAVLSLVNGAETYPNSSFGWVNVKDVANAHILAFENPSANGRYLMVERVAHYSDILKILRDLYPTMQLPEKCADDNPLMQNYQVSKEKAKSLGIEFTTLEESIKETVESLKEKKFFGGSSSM

Substance: LePEDH (tomato 2-phenylethanol dehydrogenase, full-length cLET2M9) (Solanum lycopersicum)
- Km (O=Cc1ccccc1): 240.1 µM
- Km (O=CCc1ccccc1): 42.3 µM
- Km (O=C/C=C/c1ccccc1): 428.9 µM
